Data taken from article PMC4402133.

Columns and labels:
Test in all cases: native gel or EMSA
[1] = biological target: pPL^45-Zn-163 nascent chain (bovine | S. cerevisiae) (UniProt P01239)
[2] = biological target: pPL-223 nascent chain (bovine) (UniProt P01239)
[3] = biological target: pPL-188 nascent chain (bovine) (UniProt P01239)
[4] = biological target: pPL-163 nascent chain (bovine) (UniProt P01239)

## RAMP complex C (~500 kD Sec61/62/63 complex) (from UniProt P38377 1-476; P82009 1-39; P82008 1-33; Q05052 33-445)
[1]
  percent of nascent chains retained in complex C after 1 hour at 24°C: 95%
[2]
  percent of nascent chains in complex C: 5%
[3]
  percent of nascent chains in complex C: 2%
[4]
  percent of nascent chains in complex C: 2%
  percent of nascent chains retained in complex C after 1 hour at 24°C: 88%
